# Results taken from FireProtDB.
# Values joined by “and” are separate entries in the source; they are usually repeats but may differ in a detail not shown here. Equal entries are not always repeated.
# B1: D-amino-acid oxidase wild type, P80324 (protein)
# chain: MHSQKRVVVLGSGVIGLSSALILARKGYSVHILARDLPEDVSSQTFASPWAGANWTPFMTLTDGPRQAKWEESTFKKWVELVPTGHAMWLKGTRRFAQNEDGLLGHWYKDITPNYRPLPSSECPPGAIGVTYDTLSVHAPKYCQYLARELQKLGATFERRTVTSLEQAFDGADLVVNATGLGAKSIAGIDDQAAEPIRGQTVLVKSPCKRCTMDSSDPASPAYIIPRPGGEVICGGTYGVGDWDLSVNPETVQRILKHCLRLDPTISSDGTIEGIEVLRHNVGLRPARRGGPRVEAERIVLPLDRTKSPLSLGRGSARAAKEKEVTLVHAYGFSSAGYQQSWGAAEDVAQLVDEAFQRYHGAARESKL
# B2: Glutathione S-transferase P wild type, P80031 (protein)
# chain: PPYTITYFPVRGRCEAMRMLLADQDQSWKEEVVTMETWPPLKPSCLFRQLPKFQDGDLTLYQSNAILRHLGRSFGLYGKDQKEAALVDMVNDGVEDLRCKYATLIYTNYEAGKEKYVKELPEHLKPFETLLSQNQGGQAFVVGSQISFADYNLLDLLRIHQVLNPSCLDAFPLLSAYVARLSARPKIKAFLASPEHVNRPINGNGKN
# B3: Subtilisin inhibitor wild type, P01006 (protein)
# chain: MRNTGAGPSPSVSRPPPSAAPLSGAALAAPGDAPSALYAPSALVLTVGKGVSATTAAPERAVTLTCAPGPSGTHPAAGSACADLAAVGGDLNALTRGEDVMCPMVYDPVLLTVDGVWQGKRVSYERVFSNECEMNAHGSSVFAF
# B4: Holocytochrome-c synthase wild type, P06182 (protein)
# chain: MGWFWADQKTTGKDIGGAAVSSMSGCPVMHESSSSSPPSSECPVMQGDNDRINPLNNMPELAASKQPGQKMDLPVDRTISSIPKSPDSNEFWEYPSPQQMYNAMVRKGKIGGSGEVAEDAVESMVQVHNFLNEGCWQEVLEWEKPHTDESHVQPKLLKFMGKPGVLSPRARWMHLCGLLFPSHFSQELPFDRHDWIVLRGERKAEQQPPTFKEVRYVLDFYGGPDDENGMPTFHVDVRPALDSLDNAKDRMTRFLDRMISGPSSSSSAP
# B5: Gastricsin wild type, P30879 (protein)
# chain: SVIKVPLKKLKSIRQAMKEKGLLEEFLKTHKYDPAQRYRIGDISVALEPMAYLEAAYFGEISIGTPPQNFLVL
# B6: T-cell surface antigen CD2 wild type, P08921 (protein)
# chain: MRCKFLGSFFLLFSLSSKGADCRDSGTVWGALGHGINLNIPNFQMTDDIDEVRWERGSTLVAEFKRKMKPFLKSGAFEILANGDLKIKNLTRDDSGTYNVTVYSTNGTRILNKALDLRILEMVSKPMIYWECSNATLTCEVLEGTDVELKLYQGKEHLRSLRQKTMSYQWTNLRAPFKCKAVNRVSQESEMEVVNCPEKGLPLYLIVGVSAGGLLLVFFGALFIFCICKRKKRNRRRKGEELEIKASRMSTVERGPKPHSTQASAPASQNPVASQAPPPPGHHLQTPGHRPLPPSHRNREHQPKKRPPPSGTQVHQQKGPPLPRPRVQPKPPCGSGDVSLPPPN
# B7: Cytochrome c mitochondrial import factor CYC2 wild type, P38909 (protein)
# chain: MLWKNYVLSSSRITRRLHKSPRKSSFSKNFFITGCLLTVGAVSSYLTYRYTSERENKHELSPSYFVKYKISHKRDIDSSHFLLEVTPLFKQKVNIWSLMTAENLWSVEIKQPEVMVVRNYTPLPLKFNPASKEIEILKDGDNADGKLSFYIKKYENGEVARWLHHLPKGHIIEIRGPFIDYEFPHLPNELKRSRDCLYMDNRNERGNNVRENSQFIYQPYDIMMFTAGTGIVTALQLLLTESPFRGTIKLFHTDKNIKQLGPLYPILLRLQASNRVQLKIFETDRQTKQDVLKSIQKSITKPYPYKGLLPFSNVNNKNIMPVLALVCGPESYISSISGRKYDLNQGPVGGLLSKEGWNSDNVYKLS
# Settings: whole UniProt chain shown
# [1] = Saccharomyces cerevisiae (strain ATCC 204508 / S288c), pH 6, Thermal, Absorbance, Sodium phosphate 100 mM, reversible: yes
# [2] = Sus scrofa, pH 6.5, Thermal, DSC, Sodium phosphate 5 mM, reversible: yes
# [3] = Rattus norvegicus, pH 7.5, Thermal, Fluorescence, TEA 50 mM, transition: 3
# [4] = Saccharomyces cerevisiae (strain ATCC 204508 / S288c), pH 6, 20 °C, GdnHCl, Fluorescence, Sodium phosphate 0.1 M, reversible: yes
# [5] = Saccharomyces cerevisiae (strain ATCC 204508 / S288c), pH 6, Thermal, DSC, Sodium phosphate 0.1 M, KCl 0.05 M, reversible: yes (70-80%)
# [6] = Saccharomyces cerevisiae (strain ATCC 204508 / S288c), pH 7.2, 20 °C, GdnHCl, Fluorescence, Sodium phosphate 0.1 M
protein,measurement,setting,value
B1,Tm,"Rhodotorula toruloides, pH 7.5, Thermal, CD, Potassium phosphate 50 mM, reversible: No",50.2 °C and 48 °C
same,Tm,"Rhodotorula toruloides, pH 7.5, Thermal, DSC, Potassium phosphate 50 mM, reversible: No",56.9 °C and 55.9 °C
same,Tm,"Rhodotorula toruloides, pH 7.5, Thermal, Fluorescence, Potassium phosphate 50 mM, NH4SCN 0.5 M, reversible: No",39 °C and 39.7 °C
B2,unfolding free energy,"Sus scrofa, pH 6.5, 20 °C, GdnHCl, CD, Mes-NaOH 20 mM, NaCl 0.1 M",11.6 kcal/mol and 22.5 kcal/mol
B3,Tm,"Streptomyces albogriseolus, pH 2.45, Thermal, CD, glycine 25 mM, reversible: yes",21.6 °C
same,Tm,"Streptomyces albogriseolus, pH 2.72, Thermal, CD, glycine 25 mM, reversible: yes",31.6 °C
same,Tm,"Streptomyces albogriseolus, pH 2.87, Thermal, CD, glycine 25 mM, reversible: yes",35.7 °C
same,unfolding free energy,"Streptomyces albogriseolus, pH 3.21, 20 °C, Thermal, CD, glycine 25 mM, reversible: yes",4.07 kcal/mol
same,Tm,"Streptomyces albogriseolus, pH 3.21, Thermal, CD, glycine 25 mM, reversible: yes",45.8 °C
B4,Tm,[1],46.5 °C
same,heat capacity change of unfolding,[1],2 kcal/mol/K
same,unfolding enthalpy (van 't Hoff),[1],79 kcal/mol
B5,Tm,[2],64.5 °C
same,heat capacity change of unfolding,[2],6.1 kcal/mol/K
same,unfolding enthalpy (calorimetric),[2],256 kcal/mol
same,unfolding enthalpy (van 't Hoff),[2],131 kcal/mol
B6,Tm,[3],24.9 °C
same,heat capacity change of unfolding,[3],0.5 kcal/mol/K and 0.98 kcal/mol/K
same,unfolding enthalpy (van 't Hoff),[3],14.5 kcal/mol
B7,unfolding free energy,"Saccharomyces cerevisiae (strain ATCC 204508 / S288c), pH 6, 20 °C, GdnHCl, DSC, Sodium phosphate 0.1 M, reversible: yes",4.2 kcal/mol
same,denaturant m value,[4],3.2 kcal/mol/M
same,denaturant midpoint (higher = more stable),[4],1.5 M
same,unfolding free energy,[4],4.9 kcal/mol
same,unfolding free energy,"Saccharomyces cerevisiae (strain ATCC 204508 / S288c), pH 6, 20 °C, GdnHCl, Fluorescence, Sodium phosphate 0.1 M",3.8 kcal/mol
same,Tm,[5],79.4 °C
same,unfolding enthalpy (calorimetric),[5],113 kcal/mol
same,unfolding enthalpy (van 't Hoff),[5],140 kcal/mol
same,denaturant midpoint (higher = more stable),[6],1.49 M
same,unfolding free energy,[6],3.8 kcal/mol
